From patent US20080038235A1

Legend:
Assay in all cases: cell-based or functional assay
[1] = biological target: T1, NF-ATp expressed from an NF-ATp expression plasmid (pREP4-NF-ATp)
T1 sequence (Q60591 1-927, species assumed, looked up): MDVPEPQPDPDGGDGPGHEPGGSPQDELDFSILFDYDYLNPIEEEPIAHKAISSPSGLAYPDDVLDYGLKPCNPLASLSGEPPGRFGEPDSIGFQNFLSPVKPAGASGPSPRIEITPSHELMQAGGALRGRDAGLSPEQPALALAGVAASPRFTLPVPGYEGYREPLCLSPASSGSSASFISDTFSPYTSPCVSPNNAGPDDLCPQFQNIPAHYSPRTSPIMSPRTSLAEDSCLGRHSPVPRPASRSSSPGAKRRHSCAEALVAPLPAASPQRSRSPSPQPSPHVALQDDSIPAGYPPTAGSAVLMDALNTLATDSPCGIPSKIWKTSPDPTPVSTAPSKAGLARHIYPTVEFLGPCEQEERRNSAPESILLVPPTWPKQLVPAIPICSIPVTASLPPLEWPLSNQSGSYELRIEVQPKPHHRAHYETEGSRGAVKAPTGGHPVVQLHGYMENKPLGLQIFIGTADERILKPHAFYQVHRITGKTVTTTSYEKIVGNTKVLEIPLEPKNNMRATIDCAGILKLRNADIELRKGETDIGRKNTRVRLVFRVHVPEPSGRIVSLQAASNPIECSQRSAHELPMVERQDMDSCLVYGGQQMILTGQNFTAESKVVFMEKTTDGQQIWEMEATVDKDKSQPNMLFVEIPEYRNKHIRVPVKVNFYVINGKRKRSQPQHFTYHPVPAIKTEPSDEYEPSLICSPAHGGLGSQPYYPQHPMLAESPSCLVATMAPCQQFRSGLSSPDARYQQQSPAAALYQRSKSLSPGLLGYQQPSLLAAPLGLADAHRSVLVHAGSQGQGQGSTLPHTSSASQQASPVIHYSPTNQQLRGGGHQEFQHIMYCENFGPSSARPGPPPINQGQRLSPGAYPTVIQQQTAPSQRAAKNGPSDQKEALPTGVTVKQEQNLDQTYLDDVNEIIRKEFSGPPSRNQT

[2] = biological target: T2, NF-AT3 expressed from an expression construct
T2 sequence (Q14934 1-902, species assumed, looked up): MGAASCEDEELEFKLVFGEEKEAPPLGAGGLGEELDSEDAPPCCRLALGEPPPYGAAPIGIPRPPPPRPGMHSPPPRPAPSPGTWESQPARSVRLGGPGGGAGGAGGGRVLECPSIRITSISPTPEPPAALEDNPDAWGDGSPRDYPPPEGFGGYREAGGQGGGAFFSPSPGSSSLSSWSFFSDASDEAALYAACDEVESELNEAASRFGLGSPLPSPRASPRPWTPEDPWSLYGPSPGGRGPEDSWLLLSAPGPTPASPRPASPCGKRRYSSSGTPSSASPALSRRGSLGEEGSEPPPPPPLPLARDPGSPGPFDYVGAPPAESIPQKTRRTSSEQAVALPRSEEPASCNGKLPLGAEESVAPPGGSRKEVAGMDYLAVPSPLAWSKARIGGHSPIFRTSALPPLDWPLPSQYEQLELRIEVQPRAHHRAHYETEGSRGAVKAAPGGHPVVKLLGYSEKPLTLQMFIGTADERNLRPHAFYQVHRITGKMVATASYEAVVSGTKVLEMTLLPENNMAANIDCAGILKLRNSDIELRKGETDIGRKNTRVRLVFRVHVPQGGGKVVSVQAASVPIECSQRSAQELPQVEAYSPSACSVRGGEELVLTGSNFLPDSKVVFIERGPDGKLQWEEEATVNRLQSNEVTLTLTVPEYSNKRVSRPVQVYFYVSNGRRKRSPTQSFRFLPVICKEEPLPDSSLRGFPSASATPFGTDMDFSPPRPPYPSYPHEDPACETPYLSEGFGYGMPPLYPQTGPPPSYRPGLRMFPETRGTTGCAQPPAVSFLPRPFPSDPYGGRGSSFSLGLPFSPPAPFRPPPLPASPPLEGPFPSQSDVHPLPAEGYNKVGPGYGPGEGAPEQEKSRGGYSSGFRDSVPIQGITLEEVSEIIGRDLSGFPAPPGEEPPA

[3] = biological target: T3, NF-AT4 expressed from an expression construct
T3 sequence (Q12968 2-1075, species assumed, looked up): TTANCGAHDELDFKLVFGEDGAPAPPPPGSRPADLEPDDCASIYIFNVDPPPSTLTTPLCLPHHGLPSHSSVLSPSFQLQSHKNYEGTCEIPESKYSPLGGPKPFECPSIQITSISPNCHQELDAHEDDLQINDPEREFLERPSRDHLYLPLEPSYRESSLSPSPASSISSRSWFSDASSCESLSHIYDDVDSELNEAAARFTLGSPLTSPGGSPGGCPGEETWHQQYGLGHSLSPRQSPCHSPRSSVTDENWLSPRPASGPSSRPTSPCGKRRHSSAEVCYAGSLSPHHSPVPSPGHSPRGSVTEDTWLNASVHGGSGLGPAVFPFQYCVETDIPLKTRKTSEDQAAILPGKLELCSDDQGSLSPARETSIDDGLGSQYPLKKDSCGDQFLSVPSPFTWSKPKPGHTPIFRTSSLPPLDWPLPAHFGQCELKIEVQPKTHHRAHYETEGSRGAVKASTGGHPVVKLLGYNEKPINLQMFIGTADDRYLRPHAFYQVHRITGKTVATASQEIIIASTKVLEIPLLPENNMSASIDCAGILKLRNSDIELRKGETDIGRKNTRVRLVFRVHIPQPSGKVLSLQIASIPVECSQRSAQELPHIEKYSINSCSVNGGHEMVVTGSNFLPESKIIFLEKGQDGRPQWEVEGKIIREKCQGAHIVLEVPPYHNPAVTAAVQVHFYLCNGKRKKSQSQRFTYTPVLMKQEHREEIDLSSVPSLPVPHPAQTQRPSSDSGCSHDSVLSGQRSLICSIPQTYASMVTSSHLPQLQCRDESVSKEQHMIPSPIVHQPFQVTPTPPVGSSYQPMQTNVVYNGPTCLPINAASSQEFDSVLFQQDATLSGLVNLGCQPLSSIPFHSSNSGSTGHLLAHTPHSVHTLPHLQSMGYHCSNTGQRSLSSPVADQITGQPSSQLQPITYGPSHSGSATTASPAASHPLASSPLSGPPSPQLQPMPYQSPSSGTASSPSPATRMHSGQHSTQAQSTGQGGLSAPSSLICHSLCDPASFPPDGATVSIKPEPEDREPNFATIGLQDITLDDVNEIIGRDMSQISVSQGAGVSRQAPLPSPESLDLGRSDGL

[4] = biological target: T4, NF-ATc expressed from an expression construct
T4 sequence (O95644 1-943, species assumed, looked up): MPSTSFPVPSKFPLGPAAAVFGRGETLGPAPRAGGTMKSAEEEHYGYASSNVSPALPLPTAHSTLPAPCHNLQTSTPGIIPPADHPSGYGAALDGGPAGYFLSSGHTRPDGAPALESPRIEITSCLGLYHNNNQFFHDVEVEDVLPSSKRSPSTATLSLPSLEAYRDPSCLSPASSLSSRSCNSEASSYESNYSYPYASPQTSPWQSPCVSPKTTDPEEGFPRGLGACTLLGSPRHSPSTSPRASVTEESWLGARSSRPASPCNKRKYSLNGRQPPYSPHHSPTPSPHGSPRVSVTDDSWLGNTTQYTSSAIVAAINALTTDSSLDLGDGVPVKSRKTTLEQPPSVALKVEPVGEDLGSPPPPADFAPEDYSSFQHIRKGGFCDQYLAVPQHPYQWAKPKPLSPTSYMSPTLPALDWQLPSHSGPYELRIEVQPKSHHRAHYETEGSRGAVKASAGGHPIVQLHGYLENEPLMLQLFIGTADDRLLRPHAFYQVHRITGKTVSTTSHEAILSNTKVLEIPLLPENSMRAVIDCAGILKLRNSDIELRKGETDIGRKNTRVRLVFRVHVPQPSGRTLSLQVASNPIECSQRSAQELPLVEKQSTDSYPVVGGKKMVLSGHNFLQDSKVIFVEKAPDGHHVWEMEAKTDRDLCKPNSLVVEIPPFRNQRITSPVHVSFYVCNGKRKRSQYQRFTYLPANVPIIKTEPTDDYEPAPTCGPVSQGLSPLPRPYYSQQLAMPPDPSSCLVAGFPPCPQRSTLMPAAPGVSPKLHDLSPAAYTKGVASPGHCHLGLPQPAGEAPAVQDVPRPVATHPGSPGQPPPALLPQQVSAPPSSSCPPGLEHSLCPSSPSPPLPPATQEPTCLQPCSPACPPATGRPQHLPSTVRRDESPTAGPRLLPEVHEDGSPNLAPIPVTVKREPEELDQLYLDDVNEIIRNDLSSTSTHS

[5] = biological target: T1, NF-ATp expressed from an NF-ATp expression plasmid (pREP4-NF-ATp); remark: listed apart in the source

Chain of c-Maf expressed from the c-Maf expression vector pMEX-Maf (full-length 4.3 kb c-maf cDNA clone) (P54843 whole entry): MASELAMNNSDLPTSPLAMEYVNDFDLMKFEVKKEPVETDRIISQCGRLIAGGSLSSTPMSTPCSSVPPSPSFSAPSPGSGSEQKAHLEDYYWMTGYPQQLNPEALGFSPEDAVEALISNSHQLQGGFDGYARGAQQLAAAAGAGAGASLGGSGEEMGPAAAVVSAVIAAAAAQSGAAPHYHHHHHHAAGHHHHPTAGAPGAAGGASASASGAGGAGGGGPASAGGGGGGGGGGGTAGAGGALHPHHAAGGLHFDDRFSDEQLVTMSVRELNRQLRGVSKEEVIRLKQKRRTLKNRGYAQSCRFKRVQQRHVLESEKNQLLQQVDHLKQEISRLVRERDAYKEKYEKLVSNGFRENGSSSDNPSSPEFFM

Molecule	CAT Activity (fold induction), IL-4 CAT reporter in M12 cells, no PMA/iono., Exp. I (fold induction) [1]	CAT Activity (fold induction), IL-4 CAT reporter in M12 cells, no PMA/iono., Exp. II (fold induction) [1]	CAT Activity (fold induction), IL-4 CAT reporter in M12 cells, no PMA/iono., Exp. III (fold induction) [1]	CAT Activity (fold induction), IL-4 CAT reporter in M12 cells, with PMA/iono., Exp. I (fold induction) [1]	CAT Activity (fold induction), IL-4 CAT reporter in M12 cells, with PMA/iono., Exp. II (fold induction) [1]	CAT Activity (fold induction), IL-4 CAT reporter in M12 cells, with PMA/iono., Exp. III (fold induction) [1]	transactivation of the 3X NF-AT-CAT reporter in HepG2 cells [2]	transactivation of the 3X NF-AT-CAT reporter in HepG2 cells [3]	transactivation of the 3X NF-AT-CAT reporter in HepG2 cells [4]	CAT activity, 3X NF-AT-CAT reporter in HepG2 cells, relative to NF-ATp alone [5]	CAT activity, 3X NF-AT-CAT reporter in HepG2 cells, relative to vector alone [5]
c-Maf expressed from the c-Maf expression vector pMEX-Maf (full-length 4.3 kb c-maf cDNA clone) (from UniProt P54843 1-370)	136	54	26.3	138	100	54.7					
NIP45 expressed from a NIP45 expression plasmid (protein) MAEPLRGRGPRSRGGRGARRARGARGRCPRARQSPARLIPDTVLVDLVSDSDEEVLEVADPVEVPVARLPAPAKPEQDSDSDSEGAAEGPAGAPRTLVRRRRRRLLDPGEAPVVPVYSGKVQSSLNLIPDNSSLLKLCPSEPEDEADLTNSGSSPSEDDALPSGSPWRKKLRKKCEKEEKKMEEFPDQDISPLPQPSSRNKSRKHTEALQKLREVNKRLQDLRSCLSPKQHQSPALQSTDDEVVLVEGPVLPQSSRLFTLKIRCRADLVRLPVRMSEPLQNVVDHMANHLGVSPNRILLLFGESELSPTATPSTLKLGVADIIDCVVLASSSEATETSQELRLRVQGKEKHQMLEISLSPDSPLKVLMSHYEEAMGLSGHKLSFFFDGTKLSGKELPADLGLESGDLIEVWG							3 fold	2 fold	4 fold	4 to 5 fold	25 to 30 fold
